Measurements taken from publication PMC10866687.

Target: GFP-tagged Tks5 (GFP-Tks5), in 293T cells
Test: coimmunoprecipitation (IP FLAG, immunoblot quantification)
Settings: n = 4 experiments, parent: est. 100, read off a plot

## FLAG-MAP1B-LC1 (wild type) (from UniProt P46821) K41A; P42A
  percent of parent: 120 % WT

## FLAG-MAP1B-LC1 (wild type) (from UniProt P46821) K60A; P61A
  percent of parent: 78 % WT

## FLAG-MAP1B-LC1 (wild type) (from UniProt P46821) K95A; P96A
  percent of parent: 110 % WT

## FLAG-MAP1B-LC1 (wild type) (from UniProt P46821) P6A; R7A
  percent of parent: 120 % WT

## FLAG-MAP1B-LC1 (wild type) (from UniProt P46821) P66A; K67A; P68A
  percent of parent: 70 % WT

## FLAG-MAP1B-LC1 (wild type) (from UniProt P46821) P145A; P146A
  percent of parent: 130 % WT
